The data set addresses Cav(pnY)GFP.

The text below walks through data of US20250270289.

Cav(pnY)GFP, sequence (Q03135 whole entry): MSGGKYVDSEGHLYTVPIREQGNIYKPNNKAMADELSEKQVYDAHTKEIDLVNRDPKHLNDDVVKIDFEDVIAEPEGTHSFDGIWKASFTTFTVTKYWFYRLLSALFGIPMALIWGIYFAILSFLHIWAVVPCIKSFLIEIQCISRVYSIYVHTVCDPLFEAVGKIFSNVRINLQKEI

B1: protein Tyr phosphatase 1B (protein)
chain: MEMEKEFEQIDKSGSWAAIYQDIRHEASDFPCRVAKLPKNKNRNRYRDVSPFDHSRIKLHQEDNDYINASLIKMEEAQRSYILTQGPLPNTCGHFWEMVWEQKSRGVVMLNRVMEKGSLKCAQYWPQKEEKEMIFEDTNLKLTLISEDIKSYYTVRQLELENLTTQETREILHFHYTTWPDFGVPESPASFLNFLFKVRESGSLSPEHGPVVVHCSAGIGRSGTFCLADTCLLLMDKRKDPSSVDIKKVLLEMRKFRMGLIQTADQLRFSYLAVIEGAKFIMGDSSVQDQWKELSHEDLEPPPEHIPPPPRPPKRILEPHN
With B1, the “dephosphorylation of pnY (Western blot with phospho-caveolin antibody)” value is “Cav(pnY)GFP was stable in buffered conditions, but dephosphorylated in a time and concentration dependent fashion”; the “dephosphorylation of pnY, seen as loss of the phospho-caveolin antibody signal in a Western blot” value is “IB:pCav band present with PTP1B buffer alone, absent with PTP1B buffer + enzyme; total protein band present in both lanes, faint in the enzyme lane”.

B2: calf-intestinal alkaline phosphatase (protein)
chain: LVPVEEEDPAFWNRQAAQALDVAKKLQPIQTAAKNVILFLGDGMGVPTVTATRILKGQMNGKLGPETPLAMDQFPYVALSKTYNVDRQVPDSAGTATAYLCGVKGNYRTIGVSAAARYNQCKTTRGNEVTSVMNRAKKAGKSVGVVTTTRVQHASPAGAYAHTVNRNWYSDADLPADAQMNGCQDIAAQLVNNMDIDVILGGGRKYMFPVGTPDPEYPDDASVNGVRKRKQNLVQAWQAKHQGAQYVWNRTALLQAADDSSVTHLMGLFEPADMKYNVQQDHTKDPTLQEMTEVALRVVSRNPRGFYLFVEGGRIDHGHHDDKAYMALTEAGMFDNAIAKANELTSELDTLILVTADHSHVFSFGGYTLRGTSIFGLAPSKALDSKSYTSILYGNGPGYALGGGSRPDVNDSTSEDPSYQQQAAVPQASETHGGEDVAVFARGPQAHLVHGVEEETFVAHIMAFAGCVEPYTDCNLPAPTTATSIPD
As to B2, the “dephosphorylation of pnY (Western blot with phospho-caveolin antibody)” value is “Cav(pnY)GFP was stable in buffered conditions, but dephosphorylated in a time and concentration dependent fashion”; the “dephosphorylation of pnY, seen as loss of the phospho-caveolin antibody signal in a Western blot” value was “IB:pCav band present with CIP buffer alone, absent with CIP buffer + enzyme; total protein band present in both lanes”.
